This passage reports Kd results from paper PMC9352680, “A comprehensive thermodynamic model for RNA binding by the Saccharomyces cerevisiae Pumilio protein PUF4”.

Changes are numbered by the printed parent chain. Names and notes keep the numbering of the source. Bounds are passed on as bounds.

T1: PUF4 RNA-binding domain (Saccharomyces cerevisiae, UniProt P25339 537-888)
T1 sequence: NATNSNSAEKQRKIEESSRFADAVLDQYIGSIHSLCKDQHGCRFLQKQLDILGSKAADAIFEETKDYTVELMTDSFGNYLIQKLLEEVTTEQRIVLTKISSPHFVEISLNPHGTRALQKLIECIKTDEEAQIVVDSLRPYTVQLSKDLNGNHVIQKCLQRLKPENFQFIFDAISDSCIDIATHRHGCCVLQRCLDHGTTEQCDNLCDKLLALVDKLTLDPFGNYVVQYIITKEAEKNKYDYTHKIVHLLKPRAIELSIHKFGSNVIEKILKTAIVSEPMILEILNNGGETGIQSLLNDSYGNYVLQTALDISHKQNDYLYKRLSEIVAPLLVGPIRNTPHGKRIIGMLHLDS

B1: Ib_S4_P5E.1_K5.1_C5.1_H5.1_[G2A]_A5.1_[T6A]_F5.1_T5.1 (ssRNA)
RNA: UUUGACAACUGAUCGUUCUUUCUUAUAUAAUUAUUCUUUCUCGAUCAGUUGUCUUU
B2: Ib_S4_P5E.1_K5.1_C5.1_H5.1_A5.1_[T6C]_[A7C]_F5.1_T5.1 (ssRNA)
RNA: B1 RNA with A25G, A29C, A30C
B3: Ia_S4_P5E.1_K5.1_C5.1_H5.1_A5.1_F5.1_[T9A]_T5.1 (ssRNA)
RNA: B1 RNA with A25G, A29U, U32A
B4: Ia_S4_P5E.1_K5.1_C5.1_H5.1_A5.1_F5.1_[T9C]_T5.1 (ssRNA)
RNA: B1 RNA with A25G, A29U, U32C
B5: Ie_S4_P4E.1_K4.1_C4.1_H4.1_[+3C]_A4.1_F4.1_T4.1 (ssRNA)
RNA: B1 RNA with A25G, A27C, U28A, A29U
B6: Ib_S4_P5E.1_K5.1_C5.1_H5.1_[A4C]_A5.1_[A7C]_F5.1_T5.1 (ssRNA)
RNA: B1 RNA with A25G, A27C, A29U, A30C
B7: Ib_S4_P5E.1_K5.1_C5.1_H5.1_[T3C]_A5.1_[T5A]_F5.1_T5.1 (ssRNA)
RNA: B1 RNA with A25G, U26C, U28A, A29U
B8: Ib_S4_P5E.1_K5.1_C5.1_H5.1_[T3C]_A5.1_[A7T]_F5.1_T5.1 (ssRNA)
RNA: B1 RNA with A25G, U26C, A29U, A30U
B9: Ib_S4_P5E.1_K5.1_C5.1_H5.1_A5.1_[T5C]_[T6C]_F5.1_T5.1 (ssRNA)
RNA: B1 RNA with A25G, U28C, A29C
B10: Ib_S4_P5E.1_K5.1_C5.1_H5.1_[A4C]_A5.1_[T5G]_F5.1_T5.1 (ssRNA)
RNA: B1 RNA with A25G, A27C, U28G, A29U
B11: Ia_S4_P5E.1_K5.1_C5.1_H5.1_A5.1_F5.1_[T8A]_T5.1 (ssRNA)
RNA: B1 RNA with A25G, A29U, U31A
B12: Ib_S4_P5E.1_K5.1_C5.1_H5.1_A5.1_[T5A]_[A7T]_F5.1_T5.1 (ssRNA)
RNA: B1 RNA with A25G, U28A, A29U, A30U
B13: Ib_S4_P5E.1_K5.1_C5.1_H5.1_A5.1_[T5C]_[T6A]_F5.1_T5.1 (ssRNA)
RNA: B1 RNA with A25G, U28C
B14: Ib_S4_P5E.1_K5.1_C5.1_H5.1_[A4C]_A5.1_[T5C]_F5.1_T5.1 (ssRNA)
RNA: B1 RNA with A25G, A27C, U28C, A29U
B15: Ib_S4_P5E.1_K5.1_C5.1_H5.1_[A4C]_A5.1_[A7G]_F5.1_T5.1 (ssRNA)
RNA: B1 RNA with A25G, A27C, A29U, A30G
B16: Ib_S4_P5E.1_K5.1_C5.1_H5.1_A5.1_[T6A]_[A7G]_F5.1_T5.1 (ssRNA)
RNA: B1 RNA with A25G, A30G
B17: Ib_S4_P5E.1_K5.1_C5.1_H5.1_A5.1_[T6A]_[A7C]_F5.1_T5.1 (ssRNA)
RNA: B1 RNA with A25G, A30C
B18: Ib_S4_P5E.1_K5.1_C5.1_H5.1_[T3C]_A5.1_[T5C]_F5.1_T5.1 (ssRNA)
RNA: B1 RNA with A25G, U26C, U28C, A29U
B19: Ic_S4_P5E.1_K5.1_C5.1_H5.1_A5.1_[T6G]_[A7C]_F5.1_T5.1 (ssRNA)
RNA: B1 RNA with A25G, A29G, A30C
B20: Ie_S4_P4E.1_K4.1_C4.1_H4.1_[+3T]_A4.1_F4.1_T4.1 (ssRNA)
RNA: B1 RNA with A25G, A27U, U28A, A29U
B21: Ib_S4_P5E.1_K5.1_C5.1_H5.1_A5.1_[T5C]_[A7T]_F5.1_T5.1 (ssRNA)
RNA: B1 RNA with A25G, U28C, A29U, A30U
B22: Ib_S4_P5E.1_K5.1_C5.1_H5.1_[A4T]_A5.1_[T6A]_F5.1_T5.1 (ssRNA)
RNA: B1 RNA with A25G, A27U
B23: Ib_S4_P5E.1_K5.1_C5.1_H5.1_[G2A]_A5.1_[A7G]_F5.1_T5.1 (ssRNA)
RNA: B1 RNA with A29U, A30G
B24: Ib_S4_P5E.1_K5.1_C5.1_H5.1_[G2T]_A5.1_[A7C]_F5.1_T5.1 (ssRNA)
RNA: B1 RNA with A25U, A29U, A30C
B25: Ib_S4_P5E.1_K5.1_C5.1_H5.1_A5.1_[T5A]_[A7G]_F5.1_T5.1 (ssRNA)
RNA: B1 RNA with A25G, U28A, A29U, A30G
B26: Ib_S4_P5E.1_K5.1_C5.1_H5.1_[T3C]_A5.1_[A7C]_F5.1_T5.1 (ssRNA)
RNA: B1 RNA with A25G, U26C, A29U, A30C
B27: Ib_S4_P5E.1_K5.1_C5.1_H5.1_[T3C]_A5.1_[A7G]_F5.1_T5.1 (ssRNA)
RNA: B1 RNA with A25G, U26C, A29U, A30G
B28: Ia_S4_P4E.1_K4.1_C4.1_H4.1_A4.1_[T7C]_F4.1_T4.1 (ssRNA)
RNA: UUUGACAACUGAUCGUUCUUUCUUGUAUACUAUUCUUUCUCGAUCAGUUGUCUUU
B29: Ia_S4_P4E.1_K4.1_C4.1_H4.1_A4.1_[T7A]_F4.1_T4.1 (ssRNA)
RNA: B28 RNA with C30A

In the series the target is T1, PUF4 RNA-binding domain. Description: Mg; RNA-MaP; 20 mM Na-HEPES pH 7.4, 30 mM KOAc, 0.75 mM MgCl2, 0.1% Tween-20, 5% glycerol, 0.1 mg/mL BSA, 2 mM DTT; 25 C; 0.0125-409.6 nM protein. The settings on record: tags: N-His6-TEV cleaved; C-SNAP kept, Cy3B-labelled; label: tethered on chip by stalled RNA polymerase.
What is called Kd is the free concentration of one partner at which half of the binding sites on the other are occupied at equilibrium, for simple one-to-one binding. A lower Kd goes with tighter binding. For the molecule UCUCUUUGUAGUCUUCUCUU (ssRNA) [Ic_S1_P3E.1_K3.1_C3.1_H3.1_A3.1_[T5G]_[A6T]_F3.1_[T7C]_[A8T]_T3.1], the Kd is 513 nM. Under UCUCUUUGUAGUUGUCUCUU (ssRNA) [Ic_S1_P3E.1_K3.1_C3.1_H3.1_A3.1_[T5G]_[A6T]_F3.1_[A8G]_T3.1] stands 1680 nM; under B1, 696 nM. Under B2 stands 4.55 nM; under B3, 2.07 nM; under B4, 72 nM.

Regarding B5, the Kd worked out at 5.86 nM. The molecule B6 gave a Kd of 83.8 nM. Regarding B7, the equilibrium dissociation constant (Kd) turned out to be 872 nM. This Kd lies about 10-fold higher than the previous one. In the case of B8 it was 414 nM; in that of B9, 1.7 nM.

In turn, B10 displayed a Kd of 34.4 nM. The molecule B11 displayed a Kd of 6.15 nM. This Kd is about 5.6-fold lower than that of the molecule before. As for B12, binding was put at a Kd of 5.23 nM. In the case of B13 it was 3.97 nM; in that of B14, 19.9 nM; in that of B15, 112 nM. Under B16 stands 10.7 nM; under B17, 2.42 nM. Under B18 stands 204 nM; under B19, 12.5 nM. The molecule B20 came in with a dissociation constant (Kd) of 5.86 nM. In the case of B21 it was 1.71 nM; in that of B22, 16 nM.

B23 showed a Kd of 904 nM. B24: the Kd is more than 2300 nM. B25 registered an equilibrium dissociation constant (Kd) of 15.3 nM. Turning to B26, the dissociation constant (Kd) was found to be 1630 nM. Against the preceding molecule, the Kd is about 110-fold higher. Under B27 stands 1520 nM; under UCUCUUUGUAGUCAUCUCUU (ssRNA) [Ic_S1_P3E.1_K3.1_C3.1_H3.1_A3.1_[T5G]_[A6T]_F3.1_[T7C]_T3.1], 2020 nM.

The molecule UCUCUUUGUAGCAGUCUCUU (ssRNA) [Ic_S1_P3E.1_K3.1_C3.1_H3.1_A3.1_[T5G]_[A6C]_F3.1_[T7A]_[A8G]_T3.1] came in with a dissociation constant Kd of 1740 nM. Under UCUCUUUGUAGCGUUCUCUU (ssRNA) [Ic_S1_P3E.1_K3.1_C3.1_H3.1_A3.1_[T5G]_[A6C]_F3.1_[T7G]_[A8T]_T3.1] stands 1510 nM; under UCUCUUUGUACGCCUCUCUU (ssRNA) [Ic_S1_P3E.1_K3.1_C3.1_H3.1_A3.1_[T5C]_[A6G]_F3.1_[T7C]_[A8C]_T3.1], 719 nM. In the case of UCUCUUUGUAGUCCUCUCUU (ssRNA) [Ic_S1_P3E.1_K3.1_C3.1_H3.1_A3.1_[T5G]_[A6T]_F3.1_[T7C]_[A8C]_T3.1] it was 2000 nM.

On to UCUCUUUGUAGUUUUCUCUU (ssRNA) [Ic_S1_P3E.1_K3.1_C3.1_H3.1_A3.1_[T5G]_[A6T]_F3.1_[A8T]_T3.1], for which the Kd turned out to be 403 nM. Take UCUCUUUGUAGUGCUCUCUU (ssRNA) [Ic_S1_P3E.1_K3.1_C3.1_H3.1_A3.1_[T5G]_[A6T]_F3.1_[T7G]_[A8C]_T3.1]: the Kd is more than 2300 nM. Regarding UCUCUUUGUAGUAUUCUCUU (ssRNA) [Ic_S1_P3E.1_K3.1_C3.1_H3.1_A3.1_[T5G]_[A6T]_F3.1_[T7A]_[A8T]_T3.1], the affinity, expressed as Kd, was 86.2 nM.

Consider UCUCUUUGUAGCAUUCUCUU (ssRNA) [Ic_S1_P3E.1_K3.1_C3.1_H3.1_A3.1_[T5G]_[A6C]_F3.1_[T7A]_[A8T]_T3.1], for which the Kd turned out to be 42.4 nM.

Consider B28, for which binding was put at a Kd of 0.515 nM. In the case of B29 it was 1.23 nM. Under UCUCUUUGUACGCUUCUCUU (ssRNA) [Ic_S1_P3E.1_K3.1_C3.1_H3.1_A3.1_[T5C]_[A6G]_F3.1_[T7C]_[A8T]_T3.1] stands 62.7 nM. Molecule UCUCUUUGUAGCUUUCUCUU (ssRNA) [Ic_S1_P3E.1_K3.1_C3.1_H3.1_A3.1_[T5G]_[A6C]_F3.1_[A8T]_T3.1] displayed a Kd of 296 nM. Molecule UCUCUUUGUAGUACUCUCUU (ssRNA) [Ic_S1_P3E.1_K3.1_C3.1_H3.1_A3.1_[T5G]_[A6T]_F3.1_[T7A]_[A8C]_T3.1] had a dissociation constant Kd of 1210 nM. Under UCUCUUUGUACGGUUCUCUU (ssRNA) [Ic_S1_P3E.1_K3.1_C3.1_H3.1_A3.1_[T5C]_[A6G]_F3.1_[T7G]_[A8T]_T3.1] stands 385 nM; under UCUCUUUGUAGUGUUCUCUU (ssRNA) [Ic_S1_P3E.1_K3.1_C3.1_H3.1_A3.1_[T5G]_[A6T]_F3.1_[T7G]_[A8T]_T3.1], 659 nM; under UCUCUUUGUAGCCGUCUCUU (ssRNA) [Ic_S1_P3E.1_K3.1_C3.1_H3.1_A3.1_[T5G]_[A6C]_F3.1_[T7C]_[A8G]_T3.1], more than 2300 nM. As to UCUCUUUGUAGUAAUCUCUU (ssRNA) [Ic_S1_P3E.1_K3.1_C3.1_H3.1_A3.1_[T5G]_[A6T]_F3.1_[T7A]_T3.1], binding was put at a Kd of 1270 nM. This counts as single-digit micromolar. In the case of UCUCUUUGUACGAUUCUCUU (ssRNA) [Ic_S1_P3E.1_K3.1_C3.1_H3.1_A3.1_[T5C]_[A6G]_F3.1_[T7A]_[A8T]_T3.1] it was 29.9 nM; in that of UCUCUUUGUAGCCAUCUCUU (ssRNA) [Ic_S1_P3E.1_K3.1_C3.1_H3.1_A3.1_[T5G]_[A6C]_F3.1_[T7C]_T3.1], 1850 nM. In the case of UCUCUUUGUACGCAUCUCUU (ssRNA) [Ic_S1_P3E.1_K3.1_C3.1_H3.1_A3.1_[T5C]_[A6G]_F3.1_[T7C]_T3.1] it was 872 nM. UCUCUUUGUAGUCGUCUCUU (ssRNA) [Ic_S1_P3E.1_K3.1_C3.1_H3.1_A3.1_[T5G]_[A6T]_F3.1_[T7C]_[A8G]_T3.1]: the Kd was more than 2300 nM. Under UCUCUUUGUAGCUGUCUCUU (ssRNA) [Ic_S1_P3E.1_K3.1_C3.1_H3.1_A3.1_[T5G]_[A6C]_F3.1_[A8G]_T3.1] stands 864 nM; under UCUCUUUGUACGGCUCUCUU (ssRNA) [Ic_S1_P3E.1_K3.1_C3.1_H3.1_A3.1_[T5C]_[A6G]_F3.1_[T7G]_[A8C]_T3.1], 1730 nM; under UCUCUUUGUAGCAAUCUCUU (ssRNA) [Ic_S1_P3E.1_K3.1_C3.1_H3.1_A3.1_[T5G]_[A6C]_F3.1_[T7A]_T3.1], 1060 nM. In the case of UCUCUUUGUAGCUCUCUCUU (ssRNA) [Ic_S1_P3E.1_K3.1_C3.1_H3.1_A3.1_[T5G]_[A6C]_F3.1_[A8C]_T3.1] it was more than 2300 nM.
